B1: TTC32 (parent)
chain: YSAYIRRCACAASSDESPGSKCSP

Variants of: B1
Assay: protein stability index of a GFP-peptide fusion (GPS, HEK-293T) (PSI 1-6); higher = more stable
Settings: c terminus: a fixed tail appended
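Note: lentivirally expressed fusions sorted by FACS into six bins by GFP to DsRed ratio, PSI derived from sequencing read proportions per bin multiplied by bin number.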

Protein stability index of substitutions, site by site:
A11: S 1.95; T 1.94; Q 2.03; M 1.83; W 2.04; N 2.35; G 2.08; P 2.29; R 1.74; I 1.94; F 2.11; K 2.36; V 2.61; Y 2.36; L 1.74; H 2.33; E 1.87; C 2.06; D 1.98
E16: H 2.36; S 1.94; L 1.58; T 2.22; G 1.8; A 1.44; C 1.83; K 1.53; Q 2.18; D 2.06; M 2.42; W 3.48; I 1.82; V 1.81; Y 2.36; P 2.01; R 1.62; F 2.68; N 1.92
S17: D 2.05; Q 1.96; H 1.85; M 2.2; A 2.17; W 1.78; T 2.37; C 2.29; G 2.08; P 2.44; R 2.28; I 2.66; N 2.22; F 1.85; L 1.78; K 1.94; E 2.38; Y 1.68; V 2.02
S14: G 2.33; P 2.29; K 2.29; Q 2.19; W 1.92; C 2.18; L 2; E 2.65; I 1.96; T 1.93; A 2.16; H 2.74; D 2.38; F 1.45; V 1.53; N 2.65; R 2.03; Y 1.88; M 1.4
C10: S 2.92; V 2.07; K 3.42; W 1.44; N 2.73; Q 2.69; R 2.78; Y 2.17; P 2.88; L 2.28; T 2.73; M 1.97
D15: Y 2.38; P 1.99; K 1.81; A 3.53; H 2.37; R 1.85; V 1.51; S 2.41; C 2.03; L 1.61; I 2.06; N 1.65; T 2.76; E 2.35; F 2.34; W 1.6; M 2.28; G 1.72; Q 2.02
A12: H 2.16; F 2.15; T 1.94; K 1.81; V 2.16; D 2.49; M 1.82; I 1.78; E 2.55; P 2.26; S 2.48; G 2.46; L 1.87; W 2.08; Q 2.12; Y 1.75; C 1.94; N 2.33; R 1.93
S13: H 2.1; A 2.07; E 2.03; T 2.1; Q 1.96; V 1.49; P 1.89; F 2.08; I 2; D 2.62; N 1.87; Y 2.13; K 2.28; W 1.98; L 1.69; G 2.57; R 2.21; M 1.55; C 2.96
P18: G 2.43; H 2.21; Y 1.6; S 2.37; L 2.22; C 2.28; V 2.07; D 2.45; K 2.82; T 2.42; Q 1.96; E 2.36; N 2.33; A 1.83; R 2.06; M 1.68; F 2.68; W 2.63; I 1.95
G19: A 2.02; C 4.24; D 2.83

Reference: the supplement of paper PMC10567573
